In the series the test system is ATP. Briefly: switch fluorescence ratio, 500 uM ATP over buffer (Cy3 cluster intensity, sum of 5 cycles each) (fold (ratio)); higher = stronger signal-on switching upon ATP binding; sequences stand for … in TCGTCGGCAGCGTCAGATGTGTATAAGAGACAGTTTTTTTTTTTTTTTTTTTTTTTTT…TC. To be noted: aptamer strand: ATP DNA aptamer (quencher-CACCTGGGGGAGTATTGCGGAGGAAGG + anchor), 100 nM annealed; ATP concentration: 500 uM. Summed up: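 The fluorescence ratio divides summed target-cycle Cy3 intensity by summed buffer-cycle Cy3 intensity for each cluster and is averaged per switch-domain sequence. Cy3-labelled switching-strand clusters on a modified Illumina MiSeq flow-cell were annealed to 100 nM quencher-labelled ATP aptamer, then imaged in selection buffer and again after 15 min with 500 uM ATP at 22 °C. Five such cycles were run, with NaOH stripping and re-annealing between them, and clusters outside 100-1000 RFU were excluded.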

± gives the standard deviation of the averaged measurements.
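Further: ATP exposure 15 min at 22 °C before imaging.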

In the case of ATTGAAAAGG, the switch fluorescence ratio came to 0.96 ± 0.028.

As for ATTGAAGGAG, the switch fluorescence ratio came out at 0.994 ± 0.023. As to ATTGAAGGCG, the switch fluorescence ratio came out at 1 ± 0.038. For the sequence ATTGAAGGGC, the switch fluorescence ratio was 0.9661 ± 0.0093. Next, ATTGAATTCG: 1 ± 0.011; ATTGAATTTT: 0.9795 ± 0.0038; ATTGATGCTT: 0.979 ± 0.018.

As for ATTGATGGCG, the switch fluorescence ratio came out at 0.982 ± 0.06. For ATTGATGTCC, the switch fluorescence ratio is 0.976 ± 0.0098.

As for ATTGATTCTT, the switch fluorescence ratio was found to be 1.01 ± 0.051.

Take ATTGATTGAT: the switch fluorescence ratio came out at 1.02 ± 0.024. As for ATTGATTTAG, the switch fluorescence ratio is 0.9756 ± 0.0095. Turning to ATTGCAATGG, the switch fluorescence ratio is 1.6 ± 0.034.

On to ATTGCAGCTG, for which the switch fluorescence ratio was determined as 0.9637 ± 0.0015.

Consider ATTGCAGGGA, for which the switch fluorescence ratio was determined as 0.993 ± 0.042. Consider ATTGCAGGTT, for which the switch fluorescence ratio came out at 0.965 ± 0.01.

On to ATTGCAGTTG, for which the switch fluorescence ratio turned out to be 0.954 ± 0.013. Regarding ATTGCATGCA, the switch fluorescence ratio was determined as 0.985 ± 0.026.

As for ATTGCCCACC, the switch fluorescence ratio came out at 1.026 ± 0.0086. Next, ATTGCCGGGA: 1.01 ± 0.0089; ATTGCGACAC: 1.23 ± 0.035; ATTGCGTGGT: 0.986 ± 0.024. Take ATTGCTAAGC: the switch fluorescence ratio turned out to be 1.039 ± 0.0054. Regarding ATTGCTACTT, the switch fluorescence ratio is 1.031 ± 0.0052. For the sequence ATTGCTCTGT, the switch fluorescence ratio came to 1.04 ± 0.036. Next, ATTGCTTATT: 0.974 ± 0.018. With ATTGGACAGT, the switch fluorescence ratio was 1 ± 0.075. Regarding ATTGGACTGG, the switch fluorescence ratio was determined as 0.998 ± 0.057. Next, ATTGGAGGTT: 0.995 ± 0.013; ATTGGCTAGT: 0.966 ± 0.02; ATTGGGAAAA: 1.03 ± 0.019.

In the case of ATTGGGATGC, the switch fluorescence ratio was 1.04 ± 0.02. Next, ATTGGGCGCG: 0.995 ± 0.018. For ATTGGGGGAC, the switch fluorescence ratio is 0.98 ± 0.03. Turning to ATTGGGGGAT, the switch fluorescence ratio is 1.02 ± 0.078. For the sequence ATTGGGGGCC, the switch fluorescence ratio was determined as 0.967 ± 0.028. ATTGGGGGTG: the switch fluorescence ratio was determined as 1.04 ± 0.012. With ATTGGGGTGG, the switch fluorescence ratio was 0.935 ± 0.12. Take ATTGGGGTGT: the switch fluorescence ratio stood at 1.01 ± 0.022. For ATTGGGTAGT, the switch fluorescence ratio came to 0.9765 ± 0.0084. With ATTGGGTGTT, the switch fluorescence ratio turned out to be 1.02 ± 0.029.

For ATTGGGTTCT, the switch fluorescence ratio was 0.991 ± 0.057. As for ATTGGTTCCA, the switch fluorescence ratio is 1.03 ± 0.041. Take ATTGGTTGTG: the switch fluorescence ratio came to 0.988 ± 0.035.

Turning to ATTGTAATAG, the switch fluorescence ratio was found to be 1.04 ± 0.05. Regarding ATTGTAGAGT, the switch fluorescence ratio turned out to be 0.985 ± 0.026. For ATTGTAGTCT, the switch fluorescence ratio turned out to be 1.04 ± 0.06.

In the case of ATTGTATTTG, the switch fluorescence ratio is 1.01 ± 0.034. Regarding ATTGTCTGAG, the switch fluorescence ratio came to 1.01 ± 0.011.

Turning to ATTGTCTTTG, the switch fluorescence ratio came to 0.982 ± 0.018. Take ATTGTGACGA: the switch fluorescence ratio is 1.03 ± 0.027. Consider ATTGTGACTG, for which the switch fluorescence ratio worked out at 0.975 ± 0.037.

Consider ATTGTGCTTG, for which the switch fluorescence ratio amounted to 1 ± 0.027. Consider ATTGTGGGCC, for which the switch fluorescence ratio stood at 0.975 ± 0.023.

Consider ATTGTGGTCA, for which the switch fluorescence ratio amounted to 0.999 ± 0.017. Regarding ATTGTTACAG, the switch fluorescence ratio was found to be 1.01 ± 0.016. In the case of ATTGTTATTA it was 1.028 ± 0.0035; in that of ATTGTTGGGG, 0.967 ± 0.025. In the case of ATTGTTGTTC it was 1.06 ± 0.057.

With ATTGTTTACA, the switch fluorescence ratio was 0.969 ± 0.051. Next, ATTGTTTGGG: 1.03 ± 0.019.

For ATTGTTTTGC, the switch fluorescence ratio stood at 1.009 ± 0.0025.

As to ATTTAAATCT, the switch fluorescence ratio stood at 1.02 ± 0.023. As to ATTTAACGTC, the switch fluorescence ratio was 1.02 ± 0.08. On to ATTTAACTTA, for which the switch fluorescence ratio amounted to 1.008 ± 0.0016. Turning to ATTTAAGAAG, the switch fluorescence ratio is 0.99 ± 0.032.

ATTTAAGGGG: the switch fluorescence ratio was found to be 0.9949 ± 0.0092.

Regarding ATTTAAGGGT, the switch fluorescence ratio came out at 0.993 ± 0.032.

Consider ATTTAATGGG, for which the switch fluorescence ratio was 0.99 ± 0.035. As for ATTTACATCA, the switch fluorescence ratio was determined as 1.02 ± 0.013. As to ATTTAGCCGC, the switch fluorescence ratio amounted to 1.02 ± 0.017. For the sequence ATTTAGCTTA, the switch fluorescence ratio turned out to be 1.0052 ± 0.00027.

Take ATTTAGTACT: the switch fluorescence ratio was determined as 1.04 ± 0.021.

For the sequence ATTTAGTCAG, the switch fluorescence ratio is 0.9737 ± 0.0053. ATTTAGTTCT: the switch fluorescence ratio was found to be 0.981 ± 0.027. For the sequence ATTTATGAGG, the switch fluorescence ratio is 1.01 ± 0.016. With ATTTATGCAG, the switch fluorescence ratio came out at 0.9992 ± 0.0035. On to ATTTATGTGC, for which the switch fluorescence ratio was 1.01 ± 0.025. Turning to ATTTATTGGC, the switch fluorescence ratio turned out to be 1.02 ± 0.042. ATTTATTGGT: the switch fluorescence ratio came out at 1.007 ± 0.0062. Next, ATTTCAAATA: 1.01 ± 0.043; ATTTCAAATT: 1.02 ± 0.028; ATTTCACGGC: 1.05 ± 0.024.

On to ATTTCAGGTC, for which the switch fluorescence ratio was 1.02 ± 0.013. On to ATTTCCATGT, for which the switch fluorescence ratio was determined as 0.978 ± 0.011.

For the sequence ATTTCCCTGT, the switch fluorescence ratio is 1.01 ± 0.044. As to ATTTCCGCAG, the switch fluorescence ratio was determined as 3.82 ± 0.56. As to ATTTCGTAGG, the switch fluorescence ratio was 1.01 ± 0.024.

Regarding ATTTCTGGGA, the switch fluorescence ratio was 0.982 ± 0.031. As to ATTTCTTGGG, the switch fluorescence ratio came to 0.99703 ± 0.00034. Next, ATTTGAGCGT: 1.02 ± 0.014; ATTTGAGTTG: 0.965 ± 0.01. Take ATTTGATAGT: the switch fluorescence ratio came to 1.007 ± 0.0052.

For ATTTGCATAC, the switch fluorescence ratio turned out to be 2.62 ± 0.39. Next, ATTTGCATGC: 1 ± 0.012. Consider ATTTGCCGGG, for which the switch fluorescence ratio worked out at 1.031 ± 0.0081.

In the case of ATTTGCGAAT, the switch fluorescence ratio was 0.966 ± 0.039.

As to ATTTGCGAGG, the switch fluorescence ratio came out at 1.01 ± 0.017. ATTTGCGGCT: the switch fluorescence ratio was determined as 0.958 ± 0.062. With ATTTGCGGTG, the switch fluorescence ratio was 1.01 ± 0.019. Next, ATTTGCTGCG: 0.947 ± 0.087; ATTTGGAAAG: 0.999 ± 0.021; ATTTGGATGC: 1.01 ± 0.042. In the case of ATTTGGGACT, the switch fluorescence ratio was 1.03 ± 0.036. Take ATTTGGGAGA: the switch fluorescence ratio is 0.978 ± 0.042. With ATTTGGGGGA, the switch fluorescence ratio worked out at 0.999 ± 0.029. For ATTTGGGGGC, the switch fluorescence ratio is 0.973 ± 0.057. For the sequence ATTTGGGGGG, the switch fluorescence ratio turned out to be 1 ± 0.047.

On to ATTTGGGTGA, for which the switch fluorescence ratio came out at 1.03 ± 0.047. In the case of ATTTGGGTGG, the switch fluorescence ratio turned out to be 0.987 ± 0.041. Next, ATTTGGGTGT: 1.05 ± 0.02; ATTTGGTATC: 0.997 ± 0.017. For the sequence ATTTGGTCGT, the switch fluorescence ratio is 0.979 ± 0.048. On to ATTTGGTGTT, for which the switch fluorescence ratio came out at 1.01 ± 0.032. Take ATTTGTAAGA: the switch fluorescence ratio stood at 0.9927 ± 0.0045. With ATTTGTCCGT, the switch fluorescence ratio was 1.03 ± 0.018. For ATTTGTGGTT, the switch fluorescence ratio was determined as 0.9752 ± 0.0085. With ATTTGTTTTC, the switch fluorescence ratio stood at 0.953 ± 0.013. Consider ATTTTAAAGA, for which the switch fluorescence ratio turned out to be 1.009 ± 0.0062.

Take ATTTTAAGGG: the switch fluorescence ratio is 1.003 ± 0.0042.
